Where a chain is given by its changes, count along the chain named.
B1: MLC022: unconjugated GLP-1/GDF15 fusion protein (protein)
chain: HGEGTFTSDVSSYLEEQAAKEFIAWLVRGGGGQEPGQEPGQEPGQEPGQEPGQEPARQGDHCPLGPGRCCRLHTVRASLEDLGWADWVLSPREVQVTMCIGACPSQFRAANLHAQIKTSLHRLKPDTVPAPCCVPASYNPMVLIQKTDTGVSLQTYDDLLAKDCHCI
B2: MLC124: unconjugated GLP-1/GDF15 fusion protein, linker of at least 60 residues (protein)
chain: HGEGTFTSDVSSYLEEQAAKEFIAWLVRGGGGQEPGAQPGQEPGAQPGQEPGAQPGQEPGAQPGQEPGAQPGQEPGAQPGAQPGAQPGAQPARQGDHCPLGPGRCCRLHTVRASLEDLGWADWVLSPREVQVTMCIGACPSQFRAANLHAQIKTSLHRLRPDTVPAPCCVPASYNPMVLIQRTDTGVSLQTYDDLLARDCHCI
B3: MLC091: fusion polypeptide SEQ ID NO: 380 conjugated with Moiety B at 35C of Linker (conjugate)
chain: HGEGTFTSDVSSYLEEQAAKEFIAWLVRGGGGAQPGAQPGAQPGAQPGAQPGAQPGAQPGAQPGQCPGAQPGQEPGAQPGQEPGAQPGQEPGAQPGQEPGAQPGQEPGAQPARQGDHCPLGPGRCCRLHTVRASLEDLGWADWVLSPREVQVTMCIGACPSQFRAANLHAQIKTSLHRLKPDTVPAPCCVPASYNPMVLIQKTDTGVSLQTYDDLLAKDCHCI
modifications: Moiety B conjugated at linker Cys35
B4: MLC087: fusion polypeptide SEQ ID NO: 378 conjugated with Moiety B at 41C of Linker (conjugate)
chain: B3 chain with C66E, G72C
modifications: Moiety B conjugated at linker Cys41
B5: MLC088: fusion polypeptide SEQ ID NO: 378 conjugated with Moiety C at 41C of Linker (conjugate)
chain: B3 chain with C66E, G72C
modifications: Moiety C conjugated at linker Cys41
B6: MLC092: fusion polypeptide SEQ ID NO: 380 conjugated with Moiety C at 35C of Linker (conjugate)
chain: B3 chain
modifications: Moiety C conjugated at linker Cys35
B7: MLC017: fusion polypeptide SEQ ID NO: 264 conjugated with Moiety A at 55K of Linker (conjugate)
chain: HGEGTFTSDVSSYLEEQAAREFIAWLVRGGGGQEPGAQPGQEPGAQPGQEPGAQPGQEPGAQPGQEPGAQPGQEPGAQPGAQPGAKPGAQPGAQPGAQPGAQPGAQPGAQPARQGDHCPLGPGRCCRLHTVRASLEDLGWADWVLSPREVQVTMCIGACPSQFRAANLHAQIKTSLHRLRPDTVPAPCCVPASYNPMVLIQRTDTGVSLQTYDDLLARDCHCI
modifications: Moiety A conjugated at linker K55
B8: MLC084: fusion polypeptide SEQ ID NO: 376 conjugated with Moiety C at 39C of Linker (conjugate)
chain: B7 chain with R20K, A69Q, Q70C, K86Q, R180K, R202K, R218K
modifications: Moiety C conjugated at linker Cys39
B9: MLC086: fusion polypeptide SEQ ID NO: 377 conjugated with Moiety C at 37C of Linker (conjugate)
chain: B7 chain with R20K, G68C, A69Q, Q70A, K86Q, R180K, R202K, R218K
modifications: Moiety C conjugated at linker Cys37
B10: MLC080: fusion polypeptide SEQ ID NO: 374 conjugated with Moiety B at 35C of Linker (conjugate)
chain: B7 chain with R20K, E66C, A81Q, Q82E, K86Q, R180K, R202K, R218K
modifications: Moiety B conjugated at linker C35
B11: MLC074: fusion polypeptide SEQ ID NO: 369 conjugated with Moiety B at 41C of Linker (conjugate)
chain: B7 chain with R20K, G72C, K86Q, R180K, R202K, R218K
modifications: Moiety B conjugated at linker C41
B12: MLC085: fusion polypeptide SEQ ID NO: 377 conjugated with Moiety B at 37C of Linker (conjugate)
chain: B7 chain with R20K, G68C, A69Q, Q70A, K86Q, R180K, R202K, R218K
modifications: Moiety B conjugated at linker Cys37
B13: MLC075: fusion polypeptide SEQ ID NO: 369 conjugated with Moiety C at 41C of Linker (conjugate)
chain: B7 chain with R20K, G72C, K86Q, R180K, R202K, R218K
modifications: Moiety C conjugated at linker C41
B14: MLC081: fusion polypeptide SEQ ID NO: 374 conjugated with Moiety C at 35C of Linker (conjugate)
chain: B7 chain with R20K, E66C, A81Q, Q82E, K86Q, R180K, R202K, R218K
modifications: Moiety C conjugated at linker Cys35
B15: MLC083: fusion polypeptide SEQ ID NO: 376 conjugated with Moiety B at 39C of Linker (conjugate)
chain: B7 chain with R20K, A69Q, Q70C, K86Q, R180K, R202K, R218K
modifications: Moiety B conjugated at linker Cys39

Experiment: Body weight and food intake in C57BL/6 mice, unconjugated fusion proteins, 30 nmol/kg daily 10 days
Assay type: in vivo
Conditions: C57 mice, 30 nmol/kg daily, Day11, unconjugated fusion proteins
Description: (§1) 10 week old male C57BL/6 mice were injected everyday subcutaneously with 15 nmol/kg of the fusion protein conjugates (i.e., MLC002, MLC 004, MLC 005, MLC 006, MLC 007, MLC 008, and MLC 009) for 14 days. Food intake and body weight were measured daily and five animals were used for each treatment group. Body weight (BW) was monitored for each individual animal, but food intake for each group animals was measured together. Day 1 and Day 14 are first day and last day of molecule dosage. % BW loss=100*(BW on Day n-BW on Day 1)/(BW on Day 1). Cumulative food intake on Day n represents sum of food intake from Day 1 to Day n. Data are indicated as mean values and standard error (SEM) or pooled values. Statistical analysis was performed by One-way ANOVA. Body weight reduction on Day 11 is calculated by −1*(% BW loss−% BW loss of vehicle group); Cumulative food intake reduction is calculated by −100*(cumulative food intake-cumulative food intake of vehicle)/cumulative food intake of vehicle.
As described in the above method, a daily dose of 30 nmol/kg of the unconjugated fusion proteins (i.e., MLC100, MLC023, MLC022, MLC020, MLC003, MLC124, MLC021, MLC019, MLC102) were administered to C57BL/6 for 10 days. Data were calculated as above method. Day 1 and Day 10 are first day and last day of administration.

| Molecule | Body weight reduction at 30 nmol/kg (% reduction compared to vehicle)(Day11) [%] | Cumulative food intake reduction at 30 nmol/kg (% reduction compared to vehicle)(Day11) [%] |
| --- | --- | --- |
| B1 | 10.4 | 30.0 |
| B2 | 23.0 | 38.0 |

Same assay, conditions: unconjugated fusion proteins, 30 nmol/kg daily 10 days; by linker length

| Molecule | in vivo efficacy (food intake and body weight reduction) |
| --- | --- |
| B2 | the most significant results among all the tested fusion proteins |

Experiment: Body weight and food intake in C57BL/6 mice, fusion protein conjugates, 30 nmol/kg daily 10 days
Assay type: in vivo
Conditions: not given
Description: as §1
Data were calculated in the same way as described above. Day 1 and Day 10 are first day and last day of the administration.
MLC014 was used as a negative control. MLC014 has an amino acid sequence of SEQ ID NO: 261, which contains a linker fused to the N terminal of GDF15, with a CRM conjugated to the lysine residue in the linker. Tirzepatide was also used as a control.

| Molecule | Body weight reduction at 30 nmol/kg (% reduction compared to vehicle)(Day11) [%] | Cumulative food intake reduction at 30 nmol/kg (% reduction compared to vehicle)(Day11) [%] |
| --- | --- | --- |
| B3 | 22.7 | 38.1 |
| B4 | 22.7 | 31.8 |
| B5 | 22.4 | 34.8 |
| B6 | 22.2 | 33.9 |
| B7 | 25.4 | 52.3 |
| B8 | 20.7 | 36.2 |
| B9 | 24.4 | 34.8 |
| B10 | 17.2 | 33.2 |
| B11 | 20.0 | 39.9 |
| B12 | 23.8 | 40.1 |
| B13 | 20.7 | 46.2 |
| B14 | 21.5 | 39.0 |
| B15 | 21.6 | 50.5 |

Experiment: Pharmacokinetic measurement in mouse, single sc dose 30 nmol/kg, plasma ELISA
Conditions: read-out: Cmax (nmol/L), single sc dose 30 nmol/kg

| Molecule | Cmax [nmol/L] |
| --- | --- |
| B7 | 29.4 |
| B11 | 102 |
| B13 | 69.8 |

Same assay, conditions: single sc dose 30 nmol/kg

| Molecule | AUC0-24 h [µM·h] | Terminal t1/2 [h] | Tmax [h] |
| --- | --- | --- | --- |
| B7 | 0.4385 | 11.1 | 7.3 |
| B11 | 1.8247 | 18.0 | 10.7 |
| B13 | 1.2753 | 20.4 | 13.3 |

Source: patent US11453711B2, “Fusion proteins of GLP-1 and GDF15 and conjugates thereof” (BEIJING QL BIOPHARMACEUTICAL CO., LTD., priority 2019, dated 2022)
